Results from US20140017790A1, “CONTROL AGENT FOR CONTROLLING UNDIFFERENTIATED STATE AND USE THEREOF” (RIKEN, priority 2011, published 2014).

Tested on: AKT
Assay: Western blotting, phosphorylation of AKT in human iPS cells
Type: cell-based
Conditions: feeder conditions, 6 days, versus negative control (bFGF)
Method: With respect to the supernatant prepared in the above item (1), the target protein detection was carried out in the same manner as in Example 4. Furthermore, as a negative control, the target protein detection was carried out in the same manner, except that bFGF was added instead of the CCL2.
Then, the ratio of the phosphorylated AKT to the non-phosphorylated AKT (p-AKT/AKT) was determined. Assuming that the value of the p-AKT/AKT in the negative control was “1”, the relative value was calculated. Also, the ratio of the KLF4 gene expression to the GAPDH gene expression (KLF4/GAPDH) was determined. Assuming that KLF4/GAPDH in the negative control was “1”, the relative value was calculated.

B1: CCL2: mouse recombinant CCL2 (MCP-1, #479-JE-010, R&D Systems); in Examples 1, 3, 4(1), 5 mouse CCL2 (SEQ ID NO: 3) overexpressed from Ccl2 expression vector (protein, listed as Mus musculus)
chain: MQVPVMLLGLLFTVAGWSIHVLAQPDAVNAPLTCCYSFTSKMIPMSRLESYKRITSSRCPKEAVVFVTKLKREVCADPKKEWVQTYIKNLDRNQMRSEPTTLFKTASALRSSAPLNVKLTRKSEANASTTFSTTTSSTSVGVTSVTVN
phosphorylation of AKT (pAKT/AKT): not promoted
